One assay deals with hCCR7 (human) (UniProt P32248). Description: cell-based or functional assay.
The target in a further assay is T1, hCCR9 (human, UniProt P51686 1-369).
T1 sequence (looked up): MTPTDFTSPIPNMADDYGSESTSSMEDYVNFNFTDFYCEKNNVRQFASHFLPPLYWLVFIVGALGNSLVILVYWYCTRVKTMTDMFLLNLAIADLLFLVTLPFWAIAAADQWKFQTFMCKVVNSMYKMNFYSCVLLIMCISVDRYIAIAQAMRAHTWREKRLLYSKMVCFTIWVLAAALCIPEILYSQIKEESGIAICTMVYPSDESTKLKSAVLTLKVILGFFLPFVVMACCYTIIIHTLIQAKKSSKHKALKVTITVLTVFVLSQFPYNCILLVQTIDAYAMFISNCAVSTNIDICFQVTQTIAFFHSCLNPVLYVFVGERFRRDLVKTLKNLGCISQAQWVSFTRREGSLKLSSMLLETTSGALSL
Briefly: cell-based or functional assay.

Experimental findings from patent publication EP3176583A2 (TLA Targeted Immunotherapies AB, dated 2017) are described below.

Bridge positions count the residues as written; N and C are the ends. Square brackets hold non-standard residues; d marks the D form. Side chains are listed from the residue outwards. * marks the point of attachment. Biotin = O=C1N[C@H]2[C@H](CS[C@H]2CCCCC(=O)*)N1; pGlu = O=C1CC[C@@H](C(=O)O)N1; Nle = CCCC[C@H](N)C(=O)O; AEEA = NCCOCCOCC(=O)O

Sequence of hCCR7 (human) (P32248 25-378 limits assumed): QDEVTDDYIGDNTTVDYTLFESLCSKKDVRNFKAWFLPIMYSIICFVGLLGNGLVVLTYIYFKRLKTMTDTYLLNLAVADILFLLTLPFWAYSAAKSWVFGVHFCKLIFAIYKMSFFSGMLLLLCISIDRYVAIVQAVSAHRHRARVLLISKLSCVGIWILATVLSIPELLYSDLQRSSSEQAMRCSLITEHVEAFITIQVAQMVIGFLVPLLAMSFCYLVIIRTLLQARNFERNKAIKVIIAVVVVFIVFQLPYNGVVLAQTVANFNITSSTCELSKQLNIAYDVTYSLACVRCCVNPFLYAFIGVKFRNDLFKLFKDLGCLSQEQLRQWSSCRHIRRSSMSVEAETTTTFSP

In the case of “biotinMIP-3β (human MIP-3β/CCL19 residues 1-77 with an additional Lys78 derivatised with Biotin) (from UniProt Q99731 22-98) (ligand)”, the EC50, agonist activity in an Aequorin assay with hCCR7 (human) is 11 nM.
As for “recombinant native MIP-3β (from UniProt Q99731 22-98) (ligand)”, in the assay with hCCR7 (human), the EC50, agonist activity in an Aequorin assay was 1.6 nM.
In the case of “native TECK (from UniProt O15444 24-150) (ligand)”, the EC50, agonist activity in an Aequorin assay with hCCR9 turned out to be 67.9 nM.

B1: TECK-Biotin-Nle (truncated human TECK/CCL25, residues 1-74 of the mature protein, Met to Nleu substitution, derivatised at Lys72 with PEG-Biotin) (ligand)
chain: [pGlu]GVFEDCCLAYHYPIGWAVLRRAWTYRIQEVSGSCNLPAAIFYLPKRHRKVCGNPKSREVQRA[Nle]KLLDARNK([AEEA-Biotin])VF
modifications: disulfide 7-35, 8-52; also: TFA salt
Turning to B1, the “EC50, agonist activity in an Aequorin assay” value in the assay with hCCR9 came to 63.6 nM.
